From the RNAGym collection of RNA variant scans (doi:10.1073/pnas.2313332121)

B1: TPR t1 (parent)
chain: GACCAAUCUGCCCUCAGAGCUCGAGAACAUCUUCGGAUGCAGAGGAGGCAGGCUUCGGUGGCGCGAUAGCGCCAACGUCCUCAACCUCCAAUGCAUCCCACCACAUGAUGAUGCCUGAAGAGCCUUGGUUUUUUG

Variants of: B1
Test: polymerase ribozyme fitness, log enrichment relative to wild type (log ratio); higher = more active; in vitro selection for triplet polymerase activity
Summary of the method: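 In triplicate, a single round of in vitro selection was run on each mutant library, PCR-built and transcribed, covering one subunit of a heterodimeric triplet polymerase ribozyme. Frozen incubation at −7 °C followed annealing with a biotinylated primer, partner subunit and triplets, and extended constructs were then gel-excised, streptavidin-captured and taken through RT-PCR. Fitness is the logarithm of genotype enrichment over wild-type enrichment, from inverse-variance-weighted replicate averages of Illumina-sequenced inputs and outputs. […] only genotypes with ≥10 input reads and ≥1 read per output were kept.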

Variant	polymerase ribozyme fitness (log ratio)
G39U G52U A95U U109G	-6.38
C40G C70U	-1.65
C40A C89G	-2.81
C40G A41U G45A G60A A91U	-4.96
C40A U129C	-1.74
C40A G117U	-4.5
C40G G58A G107U U112A G122U	-5.89
G39C C98U G117A	-3.94
C40A C80G U109A U133A	-7.59
G39C C104U	-1.04
C40A A41U A50C	-1.94
G39U C53G U87A A90G	-0.306
C40A C114A G135A	-3.46
G39U A41C C94U C124A	0.616
G39C A50U C53U U78G	-2.26
G39U G61U	0.39
G39U G61A	-0.103
G39U C49A A100U U106A	-1.51
C40G C89G G93A	-2.6
C40G C56U C88U G122U	-2.63
C40A A84G C104A G120C G135A	-4.9

Variant	polymerase ribozyme fitness (log ratio)
C40G G57U G63C A91C	-3.66
C40A G71U G110C C114A	-6.53
C40A A66U C72G C94U	-3.54
G39C C70U U112G	-2.08
G39U C72U	-1.72
C40G C56G	-1.42
C40A C104U G110U A111U C123G U125G	-6.57
C40G C104A	-2.31
G39C C73U C99U C102A C124A G135A	-4.92
G39U C64U C101G A108G	-4.66
C40A A43U G63U C89U C102U U106C C123A	-7.19
G39C A91C	-1.16
G39C A91U	-2.41
C40G U78A	-0.582
C40A G60C	-3.13
C40A G60A	-1.03
C40G C62U U87G	-1.61
C40G A43U U59A C70A C114A G117U	-6.29
C40A G52U G63U U112A	-2.78
C40G U55A G63U C124U	0.229
G39C C79A	-3.06

Variant	polymerase ribozyme fitness (log ratio)
G39U G51U	-4.93
G39U G57A	-0.803
G39U C88U G107U G113A G122A	-6.96
G39C G69A	-3.44
C40A A46U	-3.32
G39U G60A G61A U87C C101U	-3.02
G39C U78C	-1.14
C40G G48C G93C	0.0171
C40G G48A C64U C104A U109A C114A U130A	-5.98
G39U G61U A121C	1.22
G39A G117A	-1.8
G39A G117C	-4.05
G39A G117U	-2.58
G39U C73A	-0.759
G39U G58C G71A G110C	-6.06
G39U C79U C89A A111U	-5.59
C40G G128A	-3.61
C40G A50U G120C	-0.881
C40G A46G G61C C85U	-6.04
C40G C72U G127C	-2.34
G39C G69A U112A	-3.52

Variant	polymerase ribozyme fitness (log ratio)
C40A A43G C53U G58A	-4.13
G39C C115A	-1.12
C40A U54G C62U	-1.83
C40G G61U	-2.33
C40G G61C	-2.49
C40A G44A U78C	-2.1
C40G G45U A90U G93U	-4.32
C40A C49G U55C A95C G120A	-2.38
C40A C56G A105C U106G	-4.78
C40G G52A G117A	-2.65
G39C A41U	-2.47
C40G C49A G77A C115A	-2.4
G39U C114U	-2.86
G39U C114G	-3.65
G39C C73G C102A	-4.36
C40A G44C C53A U55G G128A	-3.45
C40A C101U	-1.61
G39A G71U	-0.815
C40G G57C C79U G93U G117C C123A	-4.88
G39C G45U G61A U112C	0.603
